In the supplement of paper PMC11316812:
± gives the standard deviation of the averaged measurements.

What was measured:
MCF7 = experiment: percentage of EdU-negative (G0-arrested) nuclei per well, 72 h; higher = more G0 arrest; details: reference: sequence is the full UniProt precursor, the tested protein was the secreted form or ectodomain
hTERT-HMEC = experiment: as above; details: reference: sequence is the full UniProt precursor, the tested protein was the secreted form or ectodomain
[1] = protein concentration 0.0225 µM
[2] = protein concentration 0.01475 µM
[3] = protein concentration 0.1475 µM
[4] = protein concentration 0.0191429 µM
[5] = protein concentration 0.191429 µM
[6] = protein concentration 0.03125 µM
[7] = protein concentration 0.3125 µM
[8] = protein concentration 0.0285714 µM
[9] = protein concentration 0.285714 µM
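Also: secreted proteins added to cultured cells, EdU pulse at the end, nuclei found by Hoechst imaging, EdU status from nuclear versus surrounding ring intensity ratio, PBS as neutral control.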

Sequence: MPGPSPGLRRALLGLWAALGLGLFGLSAVSQEPFWADLQPRVAFVERGGSLWLNCSTNCPRPERGGLETSLRRNGTQRGLRWLARQLVDIREPETQPVCFFRCARRTLQARGLIRTFQRPDRVELMPLPPWQPVGENFTLSCRVPGAGPRASLTLTLLRGAQELIRRSFAGEPPRARGAVLTATVLARREDHGANFSCRAELDLRPHGLGLFENSSAPRELRTFSLSPDAPRLAAPRLLEVGSERPVSCTLDGLFPASEARVYLALGDQNLSPDVTLEGDAFVATATATASAEQEGARQLVCNVTLGGENRETRENVTIYSFPAPLLTLSEPSVSEGQMVTVTCAAGAQALVTLEGVPAAVPGQPAQLQLNATENDDRRSFFCDATLDVDGETLIKNRSAELRVLYAPRLDDSDCPRSWTWPEGPEQTLRCEARGNPEPSVHCARSDGGAVLALGLLGPVTRALSGTYRCKAANDQGEAVKDVTLTVEYAPALDSVGCPERITWLEGTEASLSCVAHGVPPPDVICVRSGELGAVIEGLLRVAREHAGTYRCEATNPRGSAAKNVAVTVEYGPRFEEPSCPSNWTWVEGSGRLFSCEVDGKPQPSVKCVGSGGATEGVLLPLAPPDPSPRAPRIPRVLAPGIYVCNATNRHGSVAKTVVVSAESPPEMDESTCPSHQTWLEGAEASALACAARGRPSPGVRCSREGIPWPEQQRVSREDAGTYHCVATNAHGTDSRTVTVGVEYRPVVAELAASPPGGVRPGGNFTLTCRAEAWPPAQISWRAPPGALNIGLSSNNSTLSVAGAMGSHGGEYECAATNAHGRHARRITVRVAGPWLWVAVGGAAGGAALLAAGAGLAFYVQSTACKKGEYNVQEAESSGEAVCLNGAGGGAGGAAGAEGGPEAAGGAAESPAEGEVFAIQLTSA [Q9UMF0]
- percentage of EdU-negative (MCF7; protein concentration 0.015 µM): 26.9 ± 2.4%
- percentage of EdU-negative (MCF7; protein concentration 0.15 µM): 36.9 ± 2.7%
- percentage of EdU-negative (hTERT-HMEC; protein concentration 0.015 µM): 5.32 ± 0.067%
- percentage of EdU-negative (hTERT-HMEC; protein concentration 0.15 µM): 90.88 ± 0.53%

Sequence: MRAPHLHLSAASGARALAKLLPLLMAQLWAAEAALLPQNDTRLDPEAYGSPCARGSQPWQVSLFNGLSFHCAGVLVDQSWVLTAAHCGNKPLWARVGDDHLLLLQGEQLRRTTRSVVHPKYHQGSGPILPRRTDEHDLMLLKLARPVVLGPRVRALQLPYRCAQPGDQCQVAGWGTTAARRVKYNKGLTCSSITILSPKECEVFYPGVVTNNMICAGLDRGQDPCQSDSGGPLVCDETLQGILSWGVYPCGSAQHPAVYTQICKYMSWINKVIRSN
- percentage of EdU-negative (MCF7; [1]): 26.7 ± 0.38%
- percentage of EdU-negative (MCF7; protein concentration 0.225 µM): 26.9 ± 1.7%
- percentage of EdU-negative (hTERT-HMEC; [1]): 3.89 ± 0.14%
- percentage of EdU-negative (hTERT-HMEC; protein concentration 0.225 µM): 6.32 ± 0.7%

Sequence: MLLRLLLAWAAAGPTLGQDPWAAEPRAACGPSSCYALFPRRRTFLEAWRACRELGGDLATPRTPEEAQRVDSLVGAGPASRLLWIGLQRQARQCQLQRPLRGFTWTTGDQDTAFTNWAQPASGGPCPAQRCVALEASGEHRWLEGSCTLAVDGYLCQFGFEGACPALQDEAGQAGPAVYTTPFHLVSTEFEWLPFGSVAAVQCQAGRGASLLCVKQPEGGVGWSRAGPLCLGTGCSPDNGGCEHECVEEVDGHVSCRCTEGFRLAADGRSCEDPCAQAPCEQQCEPGGPQGYSCHCRLGFRPAEDDPHRCVDTDECQIAGVCQQMCVNYVGGFECYCSEGHELEADGISCSPAGAMGAQASQDLGDELLDDGEDEEDEDEAWKAFNGGWTEMPGILWMEPTQPPDFALAYRPSFPEDREPQIPYPEPTWPPPLSAPRVPYHSSVLSVTRPVVVSATHPTLPSAHQPPVIPATHPALSRDHQIPVIAANYPDLPSAYQPGILSVSHSAQPPAHQPPMISTKYPELFPAHQSPMFPDTRVAGTQTTTHLPGIPPNHAPLVTTLGAQLPPQAPDALVLRTQATQLPIIPTAQPSLTTTSRSPVSPAHQISVPAATQPAALPTLLPSQSPTNQTSPISPTHPHSKAPQIPREDGPSPKLALWLPSPAPTAAPTALGEAGLAEHSQRDDRWLLVALLVPTCVFLVVLLALGIVYCTRCGPHAPNKRITDCYRWVIHAGSKSPTEPMPPRGSLTGVQTCRTSV [Q9HCU0]
- percentage of EdU-negative (MCF7; [2]): 25.7 ± 2.5%
- percentage of EdU-negative (MCF7; [3]): 27.5 ± 1.9%
- percentage of EdU-negative (hTERT-HMEC; [2]): 4.69 ± 0.05%
- percentage of EdU-negative (hTERT-HMEC; [3]): 6.87 ± 0.4%

Sequence: MRPRLWLLLAAQLTVLHGNSVLQQTPAYIKVQTNKMVMLSCEAKISLSNMRIYWLRQRQAPSSDSHHEFLALWDSAKGTIHGEEVEQEKIAVFRDASRFILNLTSVKPEDSGIYFCMIVGSPELTFGKGTQLSVVDFLPTTAQPTKKSTLKKRVCRLPRPETQKGPLCSPITLGLLVAGVLVLLVSLGVAIHLCCRRRRARLRFMKQFYK
- percentage of EdU-negative (MCF7; [4]): 27.8 ± 0.56%
- percentage of EdU-negative (MCF7; [5]): 28.7 ± 0.39%
- percentage of EdU-negative (hTERT-HMEC; [4]): 5.15 ± 0.17%
- percentage of EdU-negative (hTERT-HMEC; [5]): 4.67 ± 0.05%

Sequence: MWKRWLALALALVAVAWVRAEEELRSKSKICANVFCGAGRECAVTEKGEPTCLCIEQCKPHKRPVCGSNGKTYLNHCELHRDACLTGSKIQVDYDGHCKEKKSVSPSASPVVCYQSNRDELRRRIIQWLEAEIIPDGWFSKGSNYSEILDKYFKNFDNGDSRLDSSEFLKFVEQNETAINITTYPDQENNKLLRGLCVDALIELSDENADWKLSFQEFLKCLNPSFNPPEKKCALEDETYADGAETEVDCNRCVCACGNWVCTAMTCDGKNQKGAQTQTEEEMTRYVQELQKHQETAEKTKRVSTKEI
- percentage of EdU-negative (MCF7; [6]): 25.7 ± 0.72%
- percentage of EdU-negative (MCF7; [7]): 26.2 ± 3.6%
- percentage of EdU-negative (hTERT-HMEC; [6]): 4.68 ± 0.16%
- percentage of EdU-negative (hTERT-HMEC; [7]): 5.53 ± 0.92%

Sequence: MGPLSAPPCTQRITWKGVLLTASLLNFWNPPTTAQVTIEAQPPKVSEGKDVLLLVHNLPQNLAGYIWYKGQMTYLYHYITSYVVDGQRIIYGPAYSGRERVYSNASLLIQNVTQEDAGSYTLHIIKRRDGTGGVTGHFTFTLHLETPKPSISSSNLNPREAMEAVILTCDPATPAASYQWWMNGQSLPMTHRLQLSKTNRTLFIFGVTKYIAGPYECEIRNPVSASRSDPVTLNLLPKLSKPYITINNLNPRENKDVLTFTCEPKSKNYTYIWWLNGQSLPVSPRVKRPIENRILILPNVTRNETGPYQCEIRDRYGGIRSDPVTLNVLYGPDLPSIYPSFTYYRSGENLYLSCFAESNPRAQYSWTINGKFQLSGQKLSIPQITTKHSGLYACSVRNSATGKESSKSITVKVSDWILP
- percentage of EdU-negative (MCF7; [8]): 25.3 ± 1.1%
- percentage of EdU-negative (MCF7; [9]): 30.6 ± 3.2%
- percentage of EdU-negative (hTERT-HMEC; [8]): 4.04 ± 0.52%
- percentage of EdU-negative (hTERT-HMEC; [9]): 11.7 ± 1.3%
